{
  "source": "the supplement of paper PMC12764529",
  "note": "± gives the half width of the 95% confidence interval.",
  "data": [
    {"assay": "folding stability dG unfold from chymotrypsin proteolysis; higher = more stable", "summary_of_the_method": "(§1)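 Bayesian fitting of sequencing counts gave K50 for each design. Unfolding free energy followed by setting this against a sequence-predicted unfolded-state K50 and a shared folded-state K50, either per protease or with trypsin and chymotrypsin combined. The designs, under 80 residues and lacking cysteine, were digested in a PA-tagged cDNA display format at 11 threefold-diluted protease concentrations and without protease, and only those with AlphaFold2 dimer inter-PAE above 15 were kept.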", "units": {"folding stability dG unfold": "kcal/mol"}, "values": [
      {"sequence": "SAGGSAMKKTITVTLSYPETGETRTVTVELTDIPESDPEKWKALAEEVAEALAKERGAEVLGIEISSAGGSA [r15_1013_JUSTAS]", "folding stability dG unfold": "4.6 ± 0.066"},
      {"sequence": "SAGGGAPNKPVGKETFTVKIGDKWVKVEVTHYATSGTAEVKVTGPNGGPLGTFTVKIDPEKGGVYFGSAGGS [r16_798_TrMRF]", "folding stability dG unfold": "2.44 ± 0.074"},
      {"sequence": "SAGGSAGGSNLEEFLAKLPPDVEVVVDPETGTVLVRFPKTGTVAVFRVDAAEGKVELVEVKPVSAGGSAGGS [r12_82_TrMRF]", "folding stability dG unfold": "3.72 ± 0.049"},
      {"sequence": "SAGGGPSMTITVTVSSSELTSGSGPGPLTPEDVAKRLEAELPPGNVTVTVVEVDPATGEVTVRIEVESAGGS [r16_284_JUSTAS]", "folding stability dG unfold": "1.1 ± 0.034"},
      {"sequence": "SAMKKGEKVKVTLEIEVNGKKYKIELVYDKENNTYTIKIKNEKTGETKTIEVKAKTKEEALEAAKKLLESAG [r14_65_TrROS_Hall]", "folding stability dG unfold": "2.55 ± 0.035"},
      {"sequence": "SAGLDEEAYRNGLTVYLTSRLPGPDVLRPQWFDVTPEGDGFTYNVALPDGVPVNLEVLSRKVLSPEELLSAG [r14_427_JUSTAS]", "folding stability dG unfold": "0.149 ± 0.32"},
      {"sequence": "SAGGSAGGSAGVPSLEEVLAELEANPNSDAVVELPDGTRVRIRVERLPGGELRVEREEVLSAGGSAGGSAGG [r11_300_JUSTAS]", "folding stability dG unfold": "1.78 ± 0.049"},
      {"sequence": "SAGSAAIKALLEKHPKPEVIEVTRLPGSGTLVIKVDDEDHVVPTPPGGFTETLTVDENGNVLSVEPHPASAG [r5_329_JUSTAS]", "folding stability dG unfold": "1.65 ± 0.064"},
      {"sequence": "SAKPVAEGPIRIPNGFEIEITQIKPDKENGEIVIPIEIEMWRPERDPEDPNQPKWEPQEMNIAFTIPLDSAG [r14_888_TrROS]", "folding stability dG unfold": "0.119 ± 0.81"},
      {"sequence": "SAGGSAGGSAGGSPEFKIVSVEYDPETGLVTLEIEREDGSTLRFVFDKDGKLVRVEELPSAGGSAGGSAGGS [r4_259_TrROS_Hall]", "folding stability dG unfold": "4.56 ± 0.15"},
      {"sequence": "SAGEKEYVNLPLVVKLPPGVPASLILDAAVKHGAKEVTIVEEPTPDGGMVLHINLVLPKEALPKLLESLSAG [r5_376_TrMRF]", "folding stability dG unfold": "4.61 ± 0.17"},
      {"sequence": "SAGGRRPVTAEEAADRLMKELGIPGLKNIKDVTMEYEVYDPDGKPWSRVDITIKIKMPPEQRDRLKKLSAGG [r13_552_TrROS]", "folding stability dG unfold": "0.436 ± 0.19"},
      {"sequence": "SAGGSAGGSPIKIEFPPGIKEIEPIENDPNKTIMFRFPDYLVRIRINPKNGKIDIEIVPPGDMSAGGSAGGS [r12_858_TrROS]", "folding stability dG unfold": "1.9 ± 0.027"},
      {"sequence": "SAGGSAGGSAGMEIEEEDGKLRLRLEAEFEVTVTTRNADGSTTETTARVRVELTFELPEESAGGSAGGSAGG [r17_103_TrROS_Hall]", "folding stability dG unfold": "3.89 ± 0.12"},
      {"sequence": "SAGGIVVKVADGSYVRIVVYDPNNPVPRIETFPGGGVDDVIAAIAASPSFPNTVVYVERFDDGKPYPASAGG [r13_914_TrMRF]", "folding stability dG unfold": "0.664 ± 0.055"},
      {"sequence": "SAGGKTVVIELDGARIEFNEDDGTITVWMPREELEALKAALPPGAEIVEVRERPDGWVQVTIRITPPSAGGS [r8_415_TrROS_Hall]", "folding stability dG unfold": "4.21 ± 0.15"},
      {"sequence": "SAGGSAGGGHMPVTKTVQLPGRTVTLTYYPEKGTVKITFPEDGTEKTVPISPSETIEDVIKKLSSAGGSAGG [r6_166_JUSTAS]", "folding stability dG unfold": "2.74 ± 0.036"},
      {"sequence": "SAGGSPATVLSSSTLSTTPLPDGTTLTTSETVTLLPNGEPVVTTTTTTTAPDGSVTTTTTTTPLDAASAGGS [r16_261_JUSTAS]", "folding stability dG unfold": "0.671 ± 0.043"},
      {"sequence": "SAGGAEEARKAGRPVLLTVTVTAPGSGKVSTLPLLVPADRPVDVEALVAALFPADWAVTVSVSPVGGSAGGS [r8_127_JUSTAS]", "folding stability dG unfold": "1.37 ± 0.051"},
      {"sequence": "SAGGSAMTAEELKGMKVKITLKNGKKIEAKIKKVEVINGEIYIEIDGKKIKLKKNEKYKIEIVEKKSAGGSA [r15_355_TrROS_Hall]", "folding stability dG unfold": "2.22 ± 0.067"},
      {"sequence": "SAGMGATLVSESEEEIDSSGVRKLTYRSPGSLLVETLYPDGTVPVYVIDPSTGKVVEERVFHVPPDVPLSAG [r14_676_JUSTAS]", "folding stability dG unfold": "0.166 ± 0.17"},
      {"sequence": "SAGGGMTPTITVTVHYPGETVTITLSSIEEALEYLKKQGLPINPTHSDPNTLVIEFPDGRTVTITLSSAGGS [r8_365_JUSTAS]", "folding stability dG unfold": "4.15 ± 0.16"},
      {"sequence": "SAGGSAGGSAGGIKLENPNGFEVYKSPDSMVEIEFVNPNGKPMRYIIQVDEPGEIKPYPVSAGGSAGGSAGG [r7_423_TrROS]", "folding stability dG unfold": "0.0804 ± 0.23"},
      {"sequence": "SAGGSAGGSKTKTIEIEVDGKKVRITVNEDGSVTIEVYYPGKPVKTIEIPGMSIEEILKALLESAGGSAGGS [r20_8_TrROS_Hall]", "folding stability dG unfold": "2.27 ± 0.071"},
      {"sequence": "SAGGSAKEWVWVISIKYRYPNGEPLAPIPIMIPPDDPEIDIDEIADEIARKHGLDEIEVNIHPIPVSAGGSA [r15_333_TrROS]", "folding stability dG unfold": "2.03 ± 0.12"},
      {"sequence": "SAGGSAGGEVKIEVNKEKGYLLITVPKEEAEEIAKALKEKFGIKEVKIEVDEETDEVHILVKLESAGGSAGG [r6_661_TrROS_Hall]", "folding stability dG unfold": "2.98 ± 0.12"},
      {"sequence": "SMLEEVLERIEAMPPGSVVKVTLTFPDGTKRTETLKLSAEEVKEKLEKIKKENPDIKIEVKVEVYSTEEESA [r9_37_JUSTAS]", "folding stability dG unfold": "4.05 ± 0.36"},
      {"sequence": "SAGGSAGGSAGGLWLTFNFRLTFFNPDGQAMEIEIPIEIRIPPPPVTVPDPDGEEYKYDSAGGSAGGSAGGS [r10_330_TrROS]", "folding stability dG unfold": "3 ± 0.069"},
      {"sequence": "SAMKLPKDVEIKEIKFDPEKTVTIKIKVKKYDFFIYDPETGKVIVIKPGEEKEITLPANIPLLIFAIKPSAG [r14_385_TrMRF]", "folding stability dG unfold": "1.91 ± 0.098"},
      {"sequence": "SAGMKPLSDPEAQELAKEVAEKGYLVYTLKYPDGTVITVVSKSEEEVEALLEKSPYPIKEIVIIPPEKPSAG [r5_481_JUSTAS]", "folding stability dG unfold": "1.74 ± 0.098"},
      {"sequence": "SPLKEGDTLTFTLPVPDLPNVRIEIDLHFYKDPNTDRYRVLANITVYYGDKPVTFSIEMPVDTFLDLLKSSA [r9_71_TrMRF]", "folding stability dG unfold": "2.34 ± 0.12"}
    ]},
    {"assay": "folding stability dG unfold (combined trypsin and chymotrypsin); higher = more stable", "summary_of_the_method": "as §1", "units": {"folding stability dG unfold": "kcal/mol"}, "values": [
      {"sequence": "SAGGSAMKKTITVTLSYPETGETRTVTVELTDIPESDPEKWKALAEEVAEALAKERGAEVLGIEISSAGGSA [r15_1013_JUSTAS]", "folding stability dG unfold": "4.72 ± 0.065"},
      {"sequence": "SAGGGAPNKPVGKETFTVKIGDKWVKVEVTHYATSGTAEVKVTGPNGGPLGTFTVKIDPEKGGVYFGSAGGS [r16_798_TrMRF]", "folding stability dG unfold": "2.11 ± 0.14"},
      {"sequence": "SAGGSAGGSNLEEFLAKLPPDVEVVVDPETGTVLVRFPKTGTVAVFRVDAAEGKVELVEVKPVSAGGSAGGS [r12_82_TrMRF]", "folding stability dG unfold": "3.77 ± 0.073"},
      {"sequence": "SAGGGPSMTITVTVSSSELTSGSGPGPLTPEDVAKRLEAELPPGNVTVTVVEVDPATGEVTVRIEVESAGGS [r16_284_JUSTAS]", "folding stability dG unfold": "1.17 ± 0.077"},
      {"sequence": "SAMKKGEKVKVTLEIEVNGKKYKIELVYDKENNTYTIKIKNEKTGETKTIEVKAKTKEEALEAAKKLLESAG [r14_65_TrROS_Hall]", "folding stability dG unfold": "2.41 ± 0.16"},
      {"sequence": "SAGLDEEAYRNGLTVYLTSRLPGPDVLRPQWFDVTPEGDGFTYNVALPDGVPVNLEVLSRKVLSPEELLSAG [r14_427_JUSTAS]", "folding stability dG unfold": "0.0205 ± 0.19"},
      {"sequence": "SAGGSAGGSAGVPSLEEVLAELEANPNSDAVVELPDGTRVRIRVERLPGGELRVEREEVLSAGGSAGGSAGG [r11_300_JUSTAS]", "folding stability dG unfold": "1.6 ± 0.078"},
      {"sequence": "SAGSAAIKALLEKHPKPEVIEVTRLPGSGTLVIKVDDEDHVVPTPPGGFTETLTVDENGNVLSVEPHPASAG [r5_329_JUSTAS]", "folding stability dG unfold": "1.74 ± 0.14"},
      {"sequence": "SAKPVAEGPIRIPNGFEIEITQIKPDKENGEIVIPIEIEMWRPERDPEDPNQPKWEPQEMNIAFTIPLDSAG [r14_888_TrROS]", "folding stability dG unfold": "0.857 ± 0.22"},
      {"sequence": "SAGGSAGGSAGGSPEFKIVSVEYDPETGLVTLEIEREDGSTLRFVFDKDGKLVRVEELPSAGGSAGGSAGGS [r4_259_TrROS_Hall]", "folding stability dG unfold": "4.44 ± 0.19"},
      {"sequence": "SAGEKEYVNLPLVVKLPPGVPASLILDAAVKHGAKEVTIVEEPTPDGGMVLHINLVLPKEALPKLLESLSAG [r5_376_TrMRF]", "folding stability dG unfold": "4.79 ± 0.3"},
      {"sequence": "SAGGRRPVTAEEAADRLMKELGIPGLKNIKDVTMEYEVYDPDGKPWSRVDITIKIKMPPEQRDRLKKLSAGG [r13_552_TrROS]", "folding stability dG unfold": "0.51 ± 0.16"},
      {"sequence": "SAGGSAGGSPIKIEFPPGIKEIEPIENDPNKTIMFRFPDYLVRIRINPKNGKIDIEIVPPGDMSAGGSAGGS [r12_858_TrROS]", "folding stability dG unfold": "1.82 ± 0.11"},
      {"sequence": "SAGGSAGGSAGMEIEEEDGKLRLRLEAEFEVTVTTRNADGSTTETTARVRVELTFELPEESAGGSAGGSAGG [r17_103_TrROS_Hall]", "folding stability dG unfold": "3.89 ± 0.22"},
      {"sequence": "SAGGIVVKVADGSYVRIVVYDPNNPVPRIETFPGGGVDDVIAAIAASPSFPNTVVYVERFDDGKPYPASAGG [r13_914_TrMRF]", "folding stability dG unfold": "0.747 ± 0.075"}
    ]}
  ]
}
